{"source": "patent US20090263792A1", "about": "“ATOPIC DERMATITIS MARKER AND TECHNIQUE OF USING THE SAME” (FANCL CORPORATION, priority 2005, published 2009)", "molecules": {"B1": {"name": "lactoferrin (protein, UniProt P02788 20-710, looked up)", "Lactotransferrin": "GRRRSVQWCAVSQPEATKCFQWQRNMRKVRGPPVSCIKRDSPIQCIQAIAENRADAVTLDGGFIYEAGLAPYKLRPVAAEVYGTERQPRTHYYAVAVVKKGGSFQLNELQGLKSCHTGLRRTAGWNVPIGTLRPFLNWTGPPEPIEAAVARFFSASCVPGADKGQFPNLCRLCAGTGENKCAFSSQEPYFSYSGAFKCLRDGAGDVAFIRESTVFEDLSDEAERDEYELLCPDNTRKPVDKFKDCHLARVPSHAVVARSVNGKEDAIWNLLRQAQEKFGKDKSPKFQLFGSPSGQKDLLFKDSAIGFSRVPPRIDSGLYLGSGYFTAIQNLRKSEEEVAARRARVVWCAVGEQELRKCNQWSGLSEGSVTCSSASTTEDCIALVLKGEADAMSLDGGYVYTAGKCGLVPVLAENYKSQQSSDPDPNCVDRPVEGYLAVAVVRRSDTSLTWNSVKGKKSCHTAVDRTAGWNIPMGLLFNQTGSCKFDEYFSQSCAPGSDPRSNLCALCIGDEQGENKCVPNSNERYYGYTGAFRCLAENAGDVAFVKDVTVLQNTDGNNNEAWAKDLKLADFALLCLDGKRKPVTEARSCHLAMAPNHAVVSRMDKVERLKQVLLHQQAKFGRNGSDCPDKFCLFQSETKNLLFNDNTECLARLHGKTTYEKYLGPQYVAGITNLKKCSTSPLLEACEFLRK", "notes": "a protein with a molecular weight of 80,000 found in saliva and blood and bonding with Fe ions"}}, "key": {"[1]": {"tested_on": "skin tissues of NC/Nga mice modeling atopic dermatitis", "assay": "Western blotting of protein expression in skin tissues of mice modeling atopic dermatitis", "format": "in vivo, mouse", "description": "(§1) Six-week-old male mice (NC/Nga mice) modeling atopic dermatitis were obtained (NC/Nga slc, Sankyo Labo Service Corporation) and raised under conventional conditions. […] In view of the above, a 0.1% DNFB solution (haptene) was applied to the skin of the mice on both ears as well as the right and left sides of the back once a week for a total of 4 weeks.\n(§2) To relieve inflammation caused by atopic dermatitis, lactoferrin was dissolved in drinking water at 1 μg/ml and administered.\n(§3) Three mice were tested under each of the following experimental conditions: (1) haptene (−)/lactoferrin (−), (2) haptene (−)/lactoferrin (+), (3) haptene (+)/lactoferrin (−), and (4) haptene (+)/lactoferrin (+).\nSkin tissues were cut out from mice treated with haptene/lactoferrin for 4 weeks and the tissue strips were cut into small pieces with a knife, after which the tissue pieces were transferred into a centrifugal tube whose tare weight had been measured beforehand, to measure the tissue weight. Different buffers were added by different amounts, such as tissue weight×0.85 mg Urea, tissue weight×0.1 μl 1.5% SDS, tissue weight×0.1 μl 8.5% Triton X-100, and tissue weight×0.05 μl 2-ME, and homogenized using a HG30 homogenizer (Hitachi, Ltd.). […] Protein content was quantified using the dot blotting method.\nSDS-PAGE was performed with a Laemmli Tris-Glycin system using a Western blotting sample. […] If HRP labeled anti-mouse IgG (Amersham Bioscience, Inc.) (1:1000 dilution), HRP labeled anti-rabbit IgG (Amersham Bioscience, Inc.) (1:1000 dilution), HRP labeled anti-rat IgG (Amersham Bioscience, Inc.) (1:1000 dilution) or HRP labeled anti-goat IgG (Santa Cruz Biotechnology, Inc.) (1:1000 dilution) was used as the secondary antibody, an enhanced chemiluminescence (ECL) kit (Amersham Bioscience, Inc.) was used to implement detection by means of fluorescence color development. […]"}, "[2]": {"tested_on": "NC/Nga mice modeling atopic dermatitis", "assay": "Haptene (DNFB) treatment of mice modeling atopic dermatitis, observation of skin inflammation", "format": "in vivo, mouse", "conditions": "haptene (0.1% DNFB, once a week, 4 weeks) applied; lactoferrin 1 μg/ml in drinking water; compared to haptene-treated mice not given lactoferrin", "description": "as §1, §2, §3\nWhen raised with haptene treatment in a conventional environment, the mice (NC/Nga mice) modeling atopic dermatitis used in this study developed a macroscopically noticeable dermatitis very similar to atopic dermatitis after 4 weeks of haptene treatment. In this study, the mice were fed with drinking water mixed with lactoferrin, a substance shown to be effective on atopic dermatitis (a protein with a molecular weight of 80,000 found in saliva and blood and bonding with Fe ions)."}}}
{"molecule": "B1", "values": [{"measurement": "amount of expression of Annexin II, Enolase 1 and PARK7 (all other than FABP-4) (FIG. 5)", "setting": "[1]; haptene-treated mice also given lactoferrin, to a level close to non-haptene-treated control mice", "result": "recovered"}, {"measurement": "amounts of expression of Galectin-1, -4, -7 and -8 (FIG. 3)", "setting": "[1]; haptene-treated mice also given lactoferrin, to levels close to non-haptene-treated control mice", "result": "recovered"}, {"measurement": "Moesin, Ezrin and Radixin severed types of low molecular weight (50-kDa), increased by haptene treatment (FIG. 4)", "setting": "[1]; haptene-treated mice, lactoferrin administration", "result": "did not decrease"}, {"measurement": "inflammation on the back (skin condition, FIG. 1)", "setting": "[2]", "result": "less inflammation"}]}
